Test results published in patent publication US20240336672A1 (INSTITUT PASTEUR, published 2024).
Substitutions are numbered along the chain they refer to.

T1: CoV-HKU1 Spike ectodomain (HKU1-CoV, UniProt Q0ZME7 14-1276)
T1 chain: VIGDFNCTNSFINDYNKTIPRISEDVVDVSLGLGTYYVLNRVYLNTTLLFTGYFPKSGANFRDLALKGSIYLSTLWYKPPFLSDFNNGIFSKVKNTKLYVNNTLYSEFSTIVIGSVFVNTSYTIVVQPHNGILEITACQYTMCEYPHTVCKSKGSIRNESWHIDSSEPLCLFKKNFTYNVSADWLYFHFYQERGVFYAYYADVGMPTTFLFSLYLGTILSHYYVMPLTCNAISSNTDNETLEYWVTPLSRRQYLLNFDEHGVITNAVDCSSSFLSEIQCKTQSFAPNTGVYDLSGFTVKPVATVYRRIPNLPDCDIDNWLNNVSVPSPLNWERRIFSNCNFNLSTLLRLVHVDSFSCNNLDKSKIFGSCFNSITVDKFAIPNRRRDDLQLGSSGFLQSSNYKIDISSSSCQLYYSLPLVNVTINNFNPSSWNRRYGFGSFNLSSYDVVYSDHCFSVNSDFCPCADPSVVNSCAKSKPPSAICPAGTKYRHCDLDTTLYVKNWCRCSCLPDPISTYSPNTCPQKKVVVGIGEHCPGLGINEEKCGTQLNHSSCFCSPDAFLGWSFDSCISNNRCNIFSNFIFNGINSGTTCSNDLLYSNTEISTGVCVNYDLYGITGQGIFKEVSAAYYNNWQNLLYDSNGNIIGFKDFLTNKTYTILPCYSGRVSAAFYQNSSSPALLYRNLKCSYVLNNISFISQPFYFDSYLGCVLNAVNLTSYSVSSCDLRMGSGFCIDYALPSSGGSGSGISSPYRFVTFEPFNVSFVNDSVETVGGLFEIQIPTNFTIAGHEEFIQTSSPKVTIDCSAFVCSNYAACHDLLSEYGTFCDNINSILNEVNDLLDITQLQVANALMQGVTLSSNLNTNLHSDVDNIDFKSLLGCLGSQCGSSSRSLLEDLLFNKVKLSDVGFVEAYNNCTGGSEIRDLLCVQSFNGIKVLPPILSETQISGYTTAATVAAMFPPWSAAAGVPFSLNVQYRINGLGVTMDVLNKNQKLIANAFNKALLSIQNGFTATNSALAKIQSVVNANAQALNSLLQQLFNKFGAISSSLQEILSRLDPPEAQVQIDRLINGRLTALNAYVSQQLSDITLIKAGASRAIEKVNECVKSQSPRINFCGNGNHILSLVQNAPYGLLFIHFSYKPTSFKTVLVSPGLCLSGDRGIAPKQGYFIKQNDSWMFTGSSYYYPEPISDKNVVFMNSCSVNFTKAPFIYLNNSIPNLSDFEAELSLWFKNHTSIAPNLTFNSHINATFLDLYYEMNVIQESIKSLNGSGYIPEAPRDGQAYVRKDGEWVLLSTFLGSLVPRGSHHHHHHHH

T2: CoV-NL63 Spike ectodomain (NL63-CoV, UniProt Q6Q1S2 19-1291)
T2 sequence: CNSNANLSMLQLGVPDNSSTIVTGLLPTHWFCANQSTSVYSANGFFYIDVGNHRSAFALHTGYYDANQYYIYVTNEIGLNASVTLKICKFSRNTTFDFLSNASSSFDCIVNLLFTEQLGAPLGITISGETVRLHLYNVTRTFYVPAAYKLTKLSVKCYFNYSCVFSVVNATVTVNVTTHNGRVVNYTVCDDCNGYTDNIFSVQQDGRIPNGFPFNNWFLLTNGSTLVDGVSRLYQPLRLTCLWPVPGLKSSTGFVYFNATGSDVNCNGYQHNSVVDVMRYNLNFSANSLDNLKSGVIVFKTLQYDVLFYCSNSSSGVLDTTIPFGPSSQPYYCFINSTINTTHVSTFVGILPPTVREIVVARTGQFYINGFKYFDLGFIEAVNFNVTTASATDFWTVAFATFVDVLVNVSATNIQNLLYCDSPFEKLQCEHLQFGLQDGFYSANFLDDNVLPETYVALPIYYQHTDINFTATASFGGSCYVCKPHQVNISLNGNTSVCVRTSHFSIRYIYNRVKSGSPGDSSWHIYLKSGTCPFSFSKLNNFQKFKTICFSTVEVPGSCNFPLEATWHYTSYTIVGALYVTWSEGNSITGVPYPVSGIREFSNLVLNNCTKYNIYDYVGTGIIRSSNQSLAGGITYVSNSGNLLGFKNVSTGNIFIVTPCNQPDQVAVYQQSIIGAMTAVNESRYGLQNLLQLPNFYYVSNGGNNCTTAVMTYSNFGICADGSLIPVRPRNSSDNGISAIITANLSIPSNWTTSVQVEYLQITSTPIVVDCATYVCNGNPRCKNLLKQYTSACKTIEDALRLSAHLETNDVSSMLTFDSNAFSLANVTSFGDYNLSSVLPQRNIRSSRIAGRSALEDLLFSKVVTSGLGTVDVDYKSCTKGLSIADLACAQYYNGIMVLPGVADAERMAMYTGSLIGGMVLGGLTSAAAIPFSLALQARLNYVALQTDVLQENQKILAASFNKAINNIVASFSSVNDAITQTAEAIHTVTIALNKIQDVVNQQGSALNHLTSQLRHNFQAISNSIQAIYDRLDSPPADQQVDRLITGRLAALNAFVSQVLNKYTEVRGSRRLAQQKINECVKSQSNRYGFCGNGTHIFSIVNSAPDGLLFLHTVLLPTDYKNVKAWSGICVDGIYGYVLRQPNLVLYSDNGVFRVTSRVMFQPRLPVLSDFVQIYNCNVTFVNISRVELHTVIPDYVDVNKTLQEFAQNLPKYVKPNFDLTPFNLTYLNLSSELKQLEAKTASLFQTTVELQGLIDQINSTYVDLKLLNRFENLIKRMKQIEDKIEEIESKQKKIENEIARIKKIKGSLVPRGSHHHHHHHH

B1: Cv2.1353 (recombinant human IgG1) (antibody, V domains shown)
VH: EVQLVESGGGLVQPGGSLRLSCAASGVTVSSNYMNWVRQAPGKGLEWVSVIYSGGSTFYADSVKGRFIISRDNSKNTLYLQMNSLKTEDTAVYYCARDLGPMGFDIWGQGTMVTVSS
VL: DIQMTQSPSFLSASVGDRVTITCRASQGISSYLAWYQQKPGKAPKLLIYAASTLQSGVPSRFSGSGSGTEFTLTISSLQPEDFATYYCQQLNSDPPVTFGPGTKVDIKR
B2: Cv2.1169 (recombinant human IgG1) (antibody)
heavy: QVQLVQSGPEVKKPGTSVKVSCKASGFTFTTSAVQWVRQARGQRLEWIGWIVVGSGNTNYAQKFQERVTITRDMSTTTAYMELSSLRSEDTAVYYCAAPYCSGGTCLDGFDIWGQGTMVTVSSASTKGPSVFPLAPSSKSTSGGTAALGCLVKDYFPEPVTVSWNSGALTSGVHTFPAVLQSSGLYSLSSVVTVPSSSLGTQTYICNVNHKPSNTKVDKKVEPKSCDKTHTCPPCPAPELLGGPSVFLFPPKPKDTLMISRTPEVTCVVVDVSHEDPEVKFNWYVDGVEVHNAKTKPREEQYNSTYRVVSVLTVLHQDWLNGKEYKCKVSNKALPAPIEKTISKAKQPREPQVYTLPPSRDELTKNQVSLTCLVKGFYPSDIAVEWESNGQPENNYKTTPPVLDSDGSFFLYSKLTVDKSRWQQGNVFSCSVMHEALHNHYTQKSLSLSPGK
light: not shown
notes: also called Cv2.1169 IgG
B3: Cv2.3194 (recombinant human IgG1) (antibody, V domains shown)
VH: EVQLVESGGGLIQPGGSLRLSCAASGITVTSNYMSWVRQAPGKGLEWVSVIYPGGSTFYADSVKGRFTISRDNSKNTLYLQMNSLRAEDTAVYYCARDLVVYGMDVWGQGTTVTVSS
VL: EIVLTQSPGTLSLSPGERATLSCRASQSVSSSYLAWYQQKPGQAPRLLIYGASSRATGIPGRFSGSGSGTDFTLTISRLEPEDFAIYYCQQGVTFGGGTKVEIKR
B4: Cv2.3235 (recombinant human IgG1) (antibody, V domains shown)
VH: B3 VH with I27F, T30S, S31R, P53S, L99G, V100D, V101Y
VL: DIQMTQSPSFLSASVGDRVTITCRASQGISSFLAWYQQKPGKAPKLLIYGASTLQSGVTSRFSGSGSGTEFTLTISSLQPEDFATYYCQRLDSYPPITFGQGTRLEIKR
B5: Cv2.5213 (recombinant human IgG1) (antibody, V domains shown)
VH: B3 VH with I27F, T30S, V50L, P53S, F58Y, V100N, V101Y, T111A
VL: B1 VL with F10S, E70D, N92D, D94Y, P95S, V97F

Tests used:
[1] = target: T1, CoV-HKU1 Spike ectodomain; assay: ELISA, coated spike ectodomain
[2] = target: T2, CoV-NL63 Spike ectodomain; assay: ELISA, coated spike ectodomain

Binder | binding result [1] | binding result [2]
B1 | no binding | no binding
B2 | no binding | no binding
B3 | no binding | no binding
B4 | no binding | no binding
B5 | no binding | no binding
